Data on 2 molecules can be found in patent EP3837551B1 (Medizinische Hochschule Hannover, dated 2024).

In test [1] the target is T1, Serum-derived FHR1 (FHR1 from normal human serum, NHS) (human, UniProt Q03591 19-330).
T1 construct: mature; The background text says serum FHR1 circulates as homodimers and as heterodimers with FHR2; also called FHR1 from NHS
T1 sequence (looked up): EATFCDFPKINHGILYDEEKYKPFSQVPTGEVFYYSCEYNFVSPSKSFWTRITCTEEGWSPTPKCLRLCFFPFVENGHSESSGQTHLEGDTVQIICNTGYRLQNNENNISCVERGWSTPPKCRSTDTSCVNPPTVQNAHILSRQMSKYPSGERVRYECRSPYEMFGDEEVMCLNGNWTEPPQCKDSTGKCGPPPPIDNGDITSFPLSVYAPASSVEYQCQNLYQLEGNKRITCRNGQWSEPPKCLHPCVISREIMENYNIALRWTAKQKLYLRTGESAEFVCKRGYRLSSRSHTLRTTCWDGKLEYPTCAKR
Briefly: ELISA, FHR1 SCR1-2 immobilized, 5% NHS, detection with mAb C18. For orientation: An ELISA detects its analyte on a solid surface through an enzyme-linked reagent.

For test [2], the target named is T2, Recombinant FHR2, expressed in Pichia pastoris (human, UniProt P36980 19-270).
T2 construct: also called CFHR2
T2 sequence (looked up): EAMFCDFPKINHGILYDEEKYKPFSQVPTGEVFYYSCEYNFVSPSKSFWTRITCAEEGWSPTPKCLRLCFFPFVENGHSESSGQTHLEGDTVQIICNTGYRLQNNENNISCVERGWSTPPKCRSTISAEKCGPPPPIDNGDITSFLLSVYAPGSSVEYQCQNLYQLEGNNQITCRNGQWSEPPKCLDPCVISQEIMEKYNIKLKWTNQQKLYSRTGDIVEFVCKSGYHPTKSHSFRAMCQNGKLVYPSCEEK
Briefly: competition ELISA, FHR2 at 0-15 ug/mL against serum FHR1 on immobilized FHR1 SCR1-2.

The next test concerns the target T3, BSA (UniProt P02769 25-607).
T3 construct: Control protein coated on the plate
The test is described as follows: ELISA, BSA coated at 5 ug/mL, FHR1 detected with polyclonal FHR1 antibody.

T3 sequence (P02769 25-607 limits assumed): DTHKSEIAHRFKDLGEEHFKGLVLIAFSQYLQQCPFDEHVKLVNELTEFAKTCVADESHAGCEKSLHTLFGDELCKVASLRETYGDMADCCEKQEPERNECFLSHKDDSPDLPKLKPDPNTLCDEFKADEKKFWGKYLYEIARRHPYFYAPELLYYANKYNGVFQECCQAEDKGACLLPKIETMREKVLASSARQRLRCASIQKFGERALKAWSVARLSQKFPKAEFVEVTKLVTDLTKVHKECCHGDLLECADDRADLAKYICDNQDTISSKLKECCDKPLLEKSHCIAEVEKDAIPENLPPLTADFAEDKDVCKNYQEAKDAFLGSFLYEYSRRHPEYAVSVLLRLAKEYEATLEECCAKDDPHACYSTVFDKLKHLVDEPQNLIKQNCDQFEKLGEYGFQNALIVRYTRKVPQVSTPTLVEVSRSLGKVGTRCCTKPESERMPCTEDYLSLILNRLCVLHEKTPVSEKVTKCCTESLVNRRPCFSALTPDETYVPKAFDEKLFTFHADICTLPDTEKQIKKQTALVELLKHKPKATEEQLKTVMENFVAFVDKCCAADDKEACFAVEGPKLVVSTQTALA

B1: Recombinant FHR1 SCR1-2 (N-terminal fragment of FHR1) (other, human, UniProt Q03591 19-142, looked up)
chain: EATFCDFPKINHGILYDEEKYKPFSQVPTGEVFYYSCEYNFVSPSKSFWTRITCTEEGWSPTPKCLRLCFFPFVENGHSESSGQTHLEGDTVQIICNTGYRLQNNENNISCVERGWSTPPKCRS
notes: domain: SCR1-2; Expressed in P. pastoris; also called SCR1-2 of FHR1
In the case of B1, the binding result in test [1] and in test [2] was “binds” each time.

B2: Recombinant factor H related protein 1 (FHR1), expressed in Pichia pastoris (other, human, UniProt Q03591 19-330, looked up)
chain: EATFCDFPKINHGILYDEEKYKPFSQVPTGEVFYYSCEYNFVSPSKSFWTRITCTEEGWSPTPKCLRLCFFPFVENGHSESSGQTHLEGDTVQIICNTGYRLQNNENNISCVERGWSTPPKCRSTDTSCVNPPTVQNAHILSRQMSKYPSGERVRYECRSPYEMFGDEEVMCLNGNWTEPPQCKDSTGKCGPPPPIDNGDITSFPLSVYAPASSVEYQCQNLYQLEGNKRITCRNGQWSEPPKCLHPCVISREIMENYNIALRWTAKQKLYLRTGESAEFVCKRGYRLSSRSHTLRTTCWDGKLEYPTCAKR
notes: also called CFHR1; Complement Factor H-Related Protein 1
For B2, the binding result with BSA was “no binding (tested: 30 ug/mL FHR1)”.
